Experimental data from paper PMC6688830, “A Ubiquitin-Binding Domain that Binds a Structural Fold Distinct from that of Ubiquitin” (Structure(London, England:1993), 2019).

target: T1, KAP1 S33-K434 (human, UniProt Q13263 33-434); experiment: co-IP; purified SMARCAD1 fragments (FLAG-CUE1,2, FLAG-CUE1) and KAP1 RBCC, 9.6μg each in 240μL, 4°C 1 hour; anti-FLAG M2 affinity gel 3 hours; conditions: both partners purified
T1 construct: KAP1 (TRIM28), human, UniProt Q13263, residues S33-K434 (RBCC domain); The crystal structures of shorter RBCC constructs show an antiparallel homodimer; also called KAP1 RBCC (S33-K434); KAP1 RBCC; source: E. coli BL-21 CodonPlus (DE3)-RP, purified (Ni-NTA, Ulp1, Mono Q)
T1 sequence (Q13263 33-434): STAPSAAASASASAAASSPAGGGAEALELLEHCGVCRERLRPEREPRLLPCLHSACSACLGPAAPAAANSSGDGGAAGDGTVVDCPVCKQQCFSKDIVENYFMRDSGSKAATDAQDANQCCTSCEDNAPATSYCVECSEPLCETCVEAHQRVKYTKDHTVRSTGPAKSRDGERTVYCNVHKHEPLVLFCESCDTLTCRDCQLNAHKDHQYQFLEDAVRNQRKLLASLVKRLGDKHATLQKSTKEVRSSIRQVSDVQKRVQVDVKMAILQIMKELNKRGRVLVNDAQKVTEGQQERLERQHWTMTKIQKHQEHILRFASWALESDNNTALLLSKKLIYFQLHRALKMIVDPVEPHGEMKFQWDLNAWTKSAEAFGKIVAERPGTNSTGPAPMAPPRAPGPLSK

| binding result | Binder |
| --- | --- |
| binds | FLAG-CUE1,2 P170A (domain or fragment, human, UniProt Q9H4L7 95-347, looked up, SMARCAD1, human, UniProt Q9H4L7, CUE1,2 fragment S95-N347; source: E. coli BL-21 CodonPlus (DE3)-RIL, purified (Ni-NTA, Ulp1, Mono Q if required)) SSDSEDVVSPNCSNTVQEKTFNKDTVIIVSEPSEDEESQGLPTMARRNDDISELEDLSELEDLKDAKLQTLKELFAQRSDNDLLKLIESTSTMDGAIAAALLMFGDAGGGPRKRKLSSSSEPYEEDEFNDDQSIKKTRLDHGEESNESAESSSNWEKQESIVLKLQKEFPNFDKQELREVLKEHEWMYTEALESLKVFAEDQDMQYVSQSEVPNGKEVSSRSQNYPKNATKTKLKQKFSMKAQNGFNKKRKKN |
| binds | FLAG-CUE1,2 L195A (domain or fragment, human, UniProt Q9H4L7 95-347, looked up, SMARCAD1, human, UniProt Q9H4L7, CUE1,2 fragment S95-N347; source: E. coli BL-21 CodonPlus (DE3)-RIL, purified (Ni-NTA, Ulp1, Mono Q if required)) SSDSEDVVSPNCSNTVQEKTFNKDTVIIVSEPSEDEESQGLPTMARRNDDISELEDLSELEDLKDAKLQTLKELFPQRSDNDLLKLIESTSTMDGAIAAAALMFGDAGGGPRKRKLSSSSEPYEEDEFNDDQSIKKTRLDHGEESNESAESSSNWEKQESIVLKLQKEFPNFDKQELREVLKEHEWMYTEALESLKVFAEDQDMQYVSQSEVPNGKEVSSRSQNYPKNATKTKLKQKFSMKAQNGFNKKRKKN |
| binds | FLAG-CUE1,2 K161A (domain or fragment, human, UniProt Q9H4L7 95-347, looked up, SMARCAD1, human, UniProt Q9H4L7, CUE1,2 fragment S95-N347; source: E. coli BL-21 CodonPlus (DE3)-RIL, purified (Ni-NTA, Ulp1, Mono Q if required)) SSDSEDVVSPNCSNTVQEKTFNKDTVIIVSEPSEDEESQGLPTMARRNDDISELEDLSELEDLKDAALQTLKELFPQRSDNDLLKLIESTSTMDGAIAAALLMFGDAGGGPRKRKLSSSSEPYEEDEFNDDQSIKKTRLDHGEESNESAESSSNWEKQESIVLKLQKEFPNFDKQELREVLKEHEWMYTEALESLKVFAEDQDMQYVSQSEVPNGKEVSSRSQNYPKNATKTKLKQKFSMKAQNGFNKKRKKN |
| binds | FLAG-CUE1,2 E167A (domain or fragment, human, UniProt Q9H4L7 95-347, looked up, SMARCAD1, human, UniProt Q9H4L7, CUE1,2 fragment S95-N347; source: E. coli BL-21 CodonPlus (DE3)-RIL, purified (Ni-NTA, Ulp1, Mono Q if required)) SSDSEDVVSPNCSNTVQEKTFNKDTVIIVSEPSEDEESQGLPTMARRNDDISELEDLSELEDLKDAKLQTLKALFPQRSDNDLLKLIESTSTMDGAIAAALLMFGDAGGGPRKRKLSSSSEPYEEDEFNDDQSIKKTRLDHGEESNESAESSSNWEKQESIVLKLQKEFPNFDKQELREVLKEHEWMYTEALESLKVFAEDQDMQYVSQSEVPNGKEVSSRSQNYPKNATKTKLKQKFSMKAQNGFNKKRKKN |
| binds | FLAG-CUE1,2 Q171A (domain or fragment, human, UniProt Q9H4L7 95-347, looked up, SMARCAD1, human, UniProt Q9H4L7, CUE1,2 fragment S95-N347; source: E. coli BL-21 CodonPlus (DE3)-RIL, purified (Ni-NTA, Ulp1, Mono Q if required)) SSDSEDVVSPNCSNTVQEKTFNKDTVIIVSEPSEDEESQGLPTMARRNDDISELEDLSELEDLKDAKLQTLKELFPARSDNDLLKLIESTSTMDGAIAAALLMFGDAGGGPRKRKLSSSSEPYEEDEFNDDQSIKKTRLDHGEESNESAESSSNWEKQESIVLKLQKEFPNFDKQELREVLKEHEWMYTEALESLKVFAEDQDMQYVSQSEVPNGKEVSSRSQNYPKNATKTKLKQKFSMKAQNGFNKKRKKN |
